Like-named read-outs stand apart in the source and are kept apart here.
What was measured:
Test in all cases: single-molecule fluorescence in zero-mode waveguides
[1] = target: Escherichia coli 70S ribosome (Cy3B-30S and BHQ-50S subunits) on biotinylated 6(FK) mRNA (E. coli) (UniProt P0AG67)
[2] = target: Escherichia coli 70S ribosome (Cy3B-30S and BHQ-50S subunits) on biotinylated 6(FK) mRNA (E. coli) (UniProt P0AG67); remark: listed apart in the source
[3] = target: Escherichia coli 70S ribosome (Cy3B-30S and BHQ-50S subunits) on biotinylated 6(FK) mRNA (E. coli) (UniProt P0AG67); remark: listed apart in the source

dwell time [1]: 192 ms | arrival time against that of EF-G-GDPNP [2]: 150 % longer | bound-state lifetime [2]: 332 ms | arrival time against that of EF-G-GDPNP [3]: 150 % longer | bound-state lifetime [3]: 191 ms | dwell time [3]: 1.64 s | dwell time (events with counter-rotation) [3]: 122 ms | dwell time (sampling of the non-rotated state) [3]: 64.2 ms | dwell time (sampling of the rotated state, no conformational change) [3]: 75.8 ms | dwell time after the counter-rotation [3]: 10 ms | dwell time with fusidic acid [3]: 8.4 s | koff [3]: 13.2 s⁻¹ | mean dwell time with spectinomycin (sampling of the rotated state) [3]: 351 ms | mean dwell time with spectinomycin (successful translocation events) [3]: 326 ms | mean lifetime of the complex [3]: 1.62 s
Substance: Cy5-labeled single-cysteine elongation factor G (EF-G S73C on a cysteine-free background) (from UniProt P0A6M8 1-704) (enzyme)

Reference: article PMC3883222
